Data on three molecules can be found in publication PMC9482650, “Quantitative fragmentomics allow affinity mapping of interactomes” (Nature Communications, 2022).

The chains are these.
T1: NHERF3_4, Q5T2W1
T1 sequence (Q5T2W1 373-468, limits assumed, looked up): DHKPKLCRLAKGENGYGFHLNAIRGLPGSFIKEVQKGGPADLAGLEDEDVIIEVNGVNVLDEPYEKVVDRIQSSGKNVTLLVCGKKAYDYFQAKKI

T2: MPDZ_10, O75970
T2 sequence (O75970 1624-1722, limits assumed, looked up): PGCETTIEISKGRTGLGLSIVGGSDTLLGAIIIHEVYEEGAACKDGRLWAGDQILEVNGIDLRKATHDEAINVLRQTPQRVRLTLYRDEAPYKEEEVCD

T3: FRMPD1, Q5SYB0
T3 sequence (Q5SYB0 52-145, limits assumed, looked up): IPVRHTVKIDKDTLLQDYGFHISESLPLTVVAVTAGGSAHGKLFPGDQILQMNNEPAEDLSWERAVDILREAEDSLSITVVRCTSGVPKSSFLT

T4: PDZRN3_1, Q9UPQ7
T4 sequence (Q9UPQ7 244-349, limits assumed, looked up): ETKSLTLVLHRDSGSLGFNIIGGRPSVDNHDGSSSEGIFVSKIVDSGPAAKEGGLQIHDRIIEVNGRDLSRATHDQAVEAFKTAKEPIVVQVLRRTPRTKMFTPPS

T5: TIAM2, Q8IVF5
T5 sequence (Q8IVF5 885-986, limits assumed, looked up): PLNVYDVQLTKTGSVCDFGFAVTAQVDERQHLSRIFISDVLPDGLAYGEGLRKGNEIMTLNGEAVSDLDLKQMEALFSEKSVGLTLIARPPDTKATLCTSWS

T6: SYNJ2BP, P57105
T6 sequence (P57105 8-110, limits assumed, looked up): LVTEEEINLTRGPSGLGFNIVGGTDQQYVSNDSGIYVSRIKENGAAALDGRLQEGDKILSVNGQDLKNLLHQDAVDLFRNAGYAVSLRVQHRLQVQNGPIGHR

T7: RAPGEF6, Q8TEU7
T7 sequence (Q8TEU7 525-625, limits assumed, looked up): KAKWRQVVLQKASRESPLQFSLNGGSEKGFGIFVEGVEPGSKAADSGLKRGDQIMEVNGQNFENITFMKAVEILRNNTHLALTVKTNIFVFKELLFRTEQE

T8: SIPA1L2, Q9P2F8
T8 sequence (Q9P2F8 945-1036, limits assumed, looked up): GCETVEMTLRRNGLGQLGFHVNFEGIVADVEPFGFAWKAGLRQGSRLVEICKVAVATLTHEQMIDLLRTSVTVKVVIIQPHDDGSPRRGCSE

T9: LNX2_2, Q8N448
T9 sequence (Q8N448 334-432, limits assumed, looked up): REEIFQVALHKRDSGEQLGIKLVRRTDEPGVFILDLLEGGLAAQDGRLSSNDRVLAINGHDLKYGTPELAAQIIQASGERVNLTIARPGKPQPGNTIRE

T10: PDZD7_3, Q9H5P4
T10 sequence (Q9H5P4 857-944, limits assumed, looked up): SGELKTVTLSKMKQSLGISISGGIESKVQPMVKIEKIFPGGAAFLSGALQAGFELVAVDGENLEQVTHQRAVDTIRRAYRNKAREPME

T11: LIN7A, O14910
T11 sequence (O14910 103-200, limits assumed, looked up): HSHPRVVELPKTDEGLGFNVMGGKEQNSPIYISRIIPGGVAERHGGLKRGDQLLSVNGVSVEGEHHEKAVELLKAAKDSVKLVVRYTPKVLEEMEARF

T12: DFNB31_1, Q9P202
T12 sequence (Q9P202 135-233, limits assumed, looked up): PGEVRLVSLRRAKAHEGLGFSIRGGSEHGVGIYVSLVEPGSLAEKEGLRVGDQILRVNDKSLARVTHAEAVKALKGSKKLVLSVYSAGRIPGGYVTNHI

T13: LIN7B, Q9HAP6
T13 sequence (Q9HAP6 88-185, limits assumed, looked up): T11 sequence (O14910 103-200, limits assumed, looked up) with S2A, V20I, I35V, E42D, H65Q, K77Q, D78G, K89R

B1: GAB3, Q8WWW8 (peptide)
chain: EWTDERQSKV
B2: PLEKHG7, Q6ZR37 (peptide)
chain: FTLPAESSEI
B3: RSBN1, Q5VWQ0 (peptide)
chain: NLQEHSTTSV

Positions count from the first letter of the chain named.

Chain of PTPN3, P26045 (P26045 505-587): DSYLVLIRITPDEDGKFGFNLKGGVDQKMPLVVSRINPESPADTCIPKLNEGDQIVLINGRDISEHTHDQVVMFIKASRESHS
Chain of DLG4_2, P78352 (P78352 155-259): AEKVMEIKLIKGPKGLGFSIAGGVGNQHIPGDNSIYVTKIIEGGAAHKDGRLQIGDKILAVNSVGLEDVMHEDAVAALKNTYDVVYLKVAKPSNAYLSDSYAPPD
Chain of FRMPD2_2, Q68DX3 (Q68DX3 944-1038): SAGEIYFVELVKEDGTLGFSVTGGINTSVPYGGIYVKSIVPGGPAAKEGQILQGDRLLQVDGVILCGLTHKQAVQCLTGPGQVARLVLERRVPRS
Chain of FRMPD3, Q5JV73 (Q5JV73 12-100): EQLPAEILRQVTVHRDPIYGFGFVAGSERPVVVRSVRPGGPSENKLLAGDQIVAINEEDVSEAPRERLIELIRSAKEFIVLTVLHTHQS
Chain of LNX1_2, Q8TBB1 (Q8TBB1 371-470): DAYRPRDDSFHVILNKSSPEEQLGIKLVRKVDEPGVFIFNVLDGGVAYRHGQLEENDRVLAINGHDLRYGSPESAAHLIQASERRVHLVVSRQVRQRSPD

The target of one assay is T1, NHERF3_4, Q5T2W1. Kind of assay: holdup assay. The arrangement: key: below the threshold = too weak to quantify, mostly under pKd 3.1 to 4. Particulars: plain residues with an end cap or a label only (N-terminal biotin on a linker: ado-ado).
For B1, the pKd entry was “below the threshold”.
Same read-out and setting: the entry for B2 is “below the threshold”.
B3: the pKd entry is reported as “below the threshold”.

For a further assay, the target named is HTRA1, Q92743. Kind of assay: holdup assay. The arrangement: key: below the threshold = too weak to quantify, mostly under pKd 3.1 to 4. The following applies: plain residues with an end cap or a label only (N-terminal biotin on a linker: ado-ado).
Chain of HTRA1, Q92743 (Q92743 360-477): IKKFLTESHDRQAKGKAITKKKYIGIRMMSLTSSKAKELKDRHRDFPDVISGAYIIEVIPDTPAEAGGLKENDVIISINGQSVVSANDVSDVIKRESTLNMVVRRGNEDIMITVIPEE
Consider B1, for which the pKd entry is “below the threshold”.
Still for that read-out and setting: the figure for B2 is 3.52; for B3 it is 3.74.

The target of another assay is MAST2, Q6P0Q8. Description: holdup assay. The arrangement: key: below the threshold = too weak to quantify, mostly under pKd 3.1 to 4. The following applies: plain residues with an end cap or a label only (N-terminal biotin on a linker: ado-ado).
Chain of MAST2, Q6P0Q8 (Q6P0Q8 1099-1202): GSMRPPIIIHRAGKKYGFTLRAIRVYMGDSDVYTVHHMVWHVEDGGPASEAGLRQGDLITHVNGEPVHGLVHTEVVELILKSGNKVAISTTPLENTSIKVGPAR
With B1, the pKd was determined as 4.8.
Same read-out and setting: the figure for B2 is 5.6.
B3 registered a pKd of 5.61.

A further assay concerns the target T2, MPDZ_10, O75970. Description: holdup assay. The arrangement: key: below the threshold = too weak to quantify, mostly under pKd 3.1 to 4. The following applies: plain residues with an end cap or a label only (N-terminal biotin on a linker: ado-ado).
Regarding B1, the pKd stood at 3.75.
Still for that read-out and setting: with B2 the entry was “below the threshold”; with B3, “below the threshold”.

The target in the next assay is DLG1_2, Q12959. Kind of assay: holdup assay. The arrangement: key: below the threshold = too weak to quantify, mostly under pKd 3.1 to 4. Particulars: plain residues with an end cap or a label only (N-terminal biotin on a linker: ado-ado).
Chain of DLG1_2, Q12959 (Q12959 314-412): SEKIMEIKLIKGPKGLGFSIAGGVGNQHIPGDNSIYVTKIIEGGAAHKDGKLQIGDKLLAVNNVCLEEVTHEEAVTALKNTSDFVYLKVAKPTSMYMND
Molecule B1 returned a pKd of 4.01.
Regarding B2, the pKd entry is recorded as “below the threshold”.
Same read-out and setting: with B3 the figure was 3.99.

Another assay concerns the target T3, FRMPD1, Q5SYB0. Kind of assay: holdup assay. The arrangement: key: below the threshold = too weak to quantify, mostly under pKd 3.1 to 4. The following applies: plain residues with an end cap or a label only (N-terminal biotin on a linker: ado-ado).
B1: the pKd result is recorded as “below the threshold”.
The same measure, in the same setting: with B2 the entry was “below the threshold”.
On the same count and under the same terms, the entry for B3 is “below the threshold”.

A further assay has as its target T4, PDZRN3_1, Q9UPQ7. Description: holdup assay. Particulars: plain residues with an end cap or a label only (N-terminal biotin on a linker: ado-ado). The arrangement: key: below the threshold = too weak to quantify, mostly under pKd 3.1 to 4.
Molecule B1 had a pKd of 3.62.
Still for that read-out and setting: the entry for B2 is “below the threshold”; for B3 it is “below the threshold”.

The next assay concerns the target SNX27, Q96L92. Description: holdup assay. The arrangement: key: below the threshold = too weak to quantify, mostly under pKd 3.1 to 4. The following applies: plain residues with an end cap or a label only (N-terminal biotin on a linker: ado-ado).
Turning to B1, the pKd is 4.72.
As for B2, the pKd result is “below the threshold”.
Still for that read-out and setting: with B3 the figure was 5.48.

The target in another assay is T5, TIAM2, Q8IVF5. Description: holdup assay. The arrangement: key: below the threshold = too weak to quantify, mostly under pKd 3.1 to 4. The following applies: plain residues with an end cap or a label only (N-terminal biotin on a linker: ado-ado).
Consider B1, for which the pKd entry is listed as “below the threshold”.
Consider B2, for which the pKd was determined as 4.04.
Take B3: the pKd entry is “below the threshold”.

The next assay has as its target T6, SYNJ2BP, P57105. Kind of assay: holdup assay. The arrangement: key: below the threshold = too weak to quantify, mostly under pKd 3.1 to 4. Particulars: plain residues with an end cap or a label only (N-terminal biotin on a linker: ado-ado).
As for B1, the negative-log Kd (pKd) stood at 3.72.
The same measure, in the same setting: the figure for B2 is 3.98.
Still for that read-out and setting: with B3 the figure was 4.42.

The next assay has as its target FRMPD2_2, Q68DX3. Kind of assay: holdup assay. The following applies: plain residues with an end cap or a label only (N-terminal biotin on a linker: ado-ado). The arrangement: key: below the threshold = too weak to quantify, mostly under pKd 3.1 to 4.
Turning to B1, the pKd came out at 3.52.
On the same count and under the same terms, the entry for B2 is “below the threshold”; for B3 it is 3.97.

The next assay has as its target PTPN3, P26045. Description: holdup assay. The arrangement: key: below the threshold = too weak to quantify, mostly under pKd 3.1 to 4. Particulars: plain residues with an end cap or a label only (N-terminal biotin on a linker: ado-ado).
Regarding B1, the pKd was 4.12.
In the case of B2, the negative logarithm of the Kd (pKd) was 3.55.
B3 displayed a pKd of 4.49.

The target of the next assay is Inadl_3, Q8NI35. Description: holdup assay. Particulars: plain residues with an end cap or a label only (N-terminal biotin on a linker: ado-ado). The arrangement: key: below the threshold = too weak to quantify, mostly under pKd 3.1 to 4.
Chain of Inadl_3, Q8NI35 (Q8NI35 359-469): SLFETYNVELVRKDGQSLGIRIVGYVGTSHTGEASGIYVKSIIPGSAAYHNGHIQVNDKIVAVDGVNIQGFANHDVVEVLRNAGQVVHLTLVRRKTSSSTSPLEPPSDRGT
Regarding B1, the pKd result is “below the threshold”.
On the same count and under the same terms, the entry for B2 is “below the threshold”; for B3 it is “below the threshold”.

In a further assay the target is T7, RAPGEF6, Q8TEU7. Kind of assay: holdup assay. The arrangement: key: below the threshold = too weak to quantify, mostly under pKd 3.1 to 4. Particulars: plain residues with an end cap or a label only (N-terminal biotin on a linker: ado-ado).
Consider B1, for which the pKd entry is “below the threshold”.
On the same count and under the same terms, with B2 the entry was “below the threshold”; with B3, “below the threshold”.

The target of another assay is SCRIB_2, Q14160. Description: holdup assay. The arrangement: key: below the threshold = too weak to quantify, mostly under pKd 3.1 to 4. Particulars: plain residues with an end cap or a label only (N-terminal biotin on a linker: ado-ado).
Chain of SCRIB_2, Q14160 (Q14160 857-960): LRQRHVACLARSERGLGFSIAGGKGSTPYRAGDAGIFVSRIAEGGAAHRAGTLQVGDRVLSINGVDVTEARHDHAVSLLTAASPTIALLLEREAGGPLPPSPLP
Consider B1, for which the pKd entry is “below the threshold”.
The same measure, in the same setting: the entry for B2 is “below the threshold”.
Same read-out and setting: the entry for B3 is “below the threshold”.

A further assay has as its target FRMPD3, Q5JV73. Kind of assay: holdup assay. The arrangement: key: below the threshold = too weak to quantify, mostly under pKd 3.1 to 4. The following applies: plain residues with an end cap or a label only (N-terminal biotin on a linker: ado-ado).
For B1, the pKd entry is listed as “below the threshold”.
Same read-out and setting: with B2 the entry was “below the threshold”; with B3, “below the threshold”.

For the next assay, the target named is T8, SIPA1L2, Q9P2F8. Kind of assay: holdup assay. The arrangement: key: below the threshold = too weak to quantify, mostly under pKd 3.1 to 4. The following applies: plain residues with an end cap or a label only (N-terminal biotin on a linker: ado-ado).
Turning to B1, the pKd result is given as “below the threshold”.
For the molecule B2, the pKd entry is “below the threshold”.
For B3, the pKd entry is listed as “below the threshold”.

The next assay addresses T9, LNX2_2, Q8N448. Kind of assay: holdup assay. The arrangement: key: below the threshold = too weak to quantify, mostly under pKd 3.1 to 4. The following applies: plain residues with an end cap or a label only (N-terminal biotin on a linker: ado-ado).
Regarding B1, the pKd result is given as “below the threshold”.
On the same count and under the same terms, the entry for B2 is “below the threshold”; for B3 it is 4.05.

Another assay addresses LNX1_2, Q8TBB1. Kind of assay: holdup assay. The arrangement: key: below the threshold = too weak to quantify, mostly under pKd 3.1 to 4. Particulars: plain residues with an end cap or a label only (N-terminal biotin on a linker: ado-ado).
Consider B1, for which the negative-log Kd (pKd) result is on record as “below the threshold”.
Still for that read-out and setting: with B2 the entry was “below the threshold”; with B3, “below the threshold”.

The target in a further assay is T10, PDZD7_3, Q9H5P4. Description: holdup assay. The arrangement: key: below the threshold = too weak to quantify, mostly under pKd 3.1 to 4. The following applies: plain residues with an end cap or a label only (N-terminal biotin on a linker: ado-ado).
For B1, the pKd stood at 3.82.
On the same count and under the same terms, with B2 the figure was 3.97; with B3, 4.

The next assay has as its target T11, LIN7A, O14910. Description: holdup assay. The arrangement: key: below the threshold = too weak to quantify, mostly under pKd 3.1 to 4. Particulars: plain residues with an end cap or a label only (N-terminal biotin on a linker: ado-ado).
Take B1: the pKd entry was “below the threshold”.
Take B2: the pKd entry is on record as “below the threshold”.
Still for that read-out and setting: the entry for B3 is “below the threshold”.

Another assay concerns the target DLG4_2, P78352. Kind of assay: holdup assay. The arrangement: key: below the threshold = too weak to quantify, mostly under pKd 3.1 to 4. The following applies: plain residues with an end cap or a label only (N-terminal biotin on a linker: ado-ado).
B1 registered a pKd of 4.03.
For B2, the negative logarithm of the Kd (pKd) entry was “below the threshold”.
Same read-out and setting: with B3 the figure was 3.88.

The target of the next assay is T12, DFNB31_1, Q9P202. Kind of assay: holdup assay. The arrangement: key: below the threshold = too weak to quantify, mostly under pKd 3.1 to 4. Particulars: plain residues with an end cap or a label only (N-terminal biotin on a linker: ado-ado).
With B1, the pKd was 3.94.
Same read-out and setting: with B2 the figure was 4.39; with B3, 3.72.

The next assay deals with T13, LIN7B, Q9HAP6. Description: holdup assay. The arrangement: key: below the threshold = too weak to quantify, mostly under pKd 3.1 to 4. Particulars: plain residues with an end cap or a label only (N-terminal biotin on a linker: ado-ado).
For the molecule B1, the pKd entry is reported as “below the threshold”.
Same read-out and setting: the figure for B2 is 3.61; for B3 it is “below the threshold”.
